The values that follow come from patent US20230242676A1 (KISOJI BIOTECHNOLOGY, published 2023).

One assay addresses T1, SEQ ID NO 101 (Homo sapiens (Human), UniProt P0DOX5 343-449 = IgG part).
T1 construct: also called Mutated CH3 domain of KB100 Chain B (mutations D399N, K439E, E357Q, T350V)
T1 constant: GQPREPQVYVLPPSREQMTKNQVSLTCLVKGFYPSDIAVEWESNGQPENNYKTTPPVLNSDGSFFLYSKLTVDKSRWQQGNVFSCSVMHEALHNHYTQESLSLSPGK
The assay can be described thus: co-expression of Chain A and Chain B vectors, SDS-PAGE and Western blot; heterodimer formation.

In the next assay the target is T2, SEQ ID NO 95 (Homo sapiens (Human), UniProt P0DOX5 343-449 = IgG part).
T2 construct: also called Mutated CH3 domain of KB118 Chain B (mutations D399N); K439E
T2 constant: T1 constant with V10T, L11R
The assay is described as above.

Substitutions are numbered along the chain they refer to. Numbers in names are those of the source.

B1: SEQ ID NO 100 (other)
constant: T1 constant with E16Q, Q17E, K30E, E99K
notes: also called Mutated CH3 domain of KB099 Chain A (mutations D399N, K370E, E356Q, T350V)
As to B1, the binding result with SEQ ID NO 101 is given as “binds”.

B2: SEQ ID NO 102 (other)
constant: T1 constant with V10T, P12R, E16Q, Q17E, K30E, E99K
notes: also called Mutated CH3 domain of KB105 Chain A (mutations D399N, K370E, E356Q, P352R)
Turning to B2, the binding result in the assay with SEQ ID NO 95 is “binds”.

B3: SEQ ID NO 103 (other)
constant: T1 constant with V10T, P12E, E16Q, Q17E, K30E, E99K
notes: also called Mutated CH3 domain of KB108 Chain A (mutations D399N, K370E, E356Q, P352E)
For the molecule B3, the binding result with SEQ ID NO 95 is “binds”.
